Measurements as given in US20110046355A1 (F STAR BIOTECHNOLOGISCHE FORSCHUNGS UND ENTWICKLUNGSGES M B …, published 2011).

Assays:
[1] = target: T1, Human soluble Her-2 (Bender Med Systems, Austria) (human, UniProt P04626 23-652, biotinylated (sulfo-LC-LC-biotin) when used for yeast FACS staining; unlabelled in ELISA and SPR); assay: ELISA, human soluble Her-2 coated at 2 ug/ml, Fcab titrated, anti-Fc CH2-HRP detection
T1 construct: extracellular domain; given only as 'human soluble Her-2'; also called recombinant antigen Her2 (Bendermedsystems); Her2-biotin
Experimental: Human soluble Her-2 (Bender Med Systems, Austria) was coated to plastic at 2 μg/ml. After washing and blocking unspecific binding sites, increasing concentrations of Fcabs were added. To detect Her-2 bound Fcabs, anti-Fc CH2 domain specific monoclonal antibodies which were conjugated to horse radish peroxidase (Serotec) were added.

[2] = target: T2, Her-2 on Her-2 over-expressing human breast cancer cell lines SKBR3 and Calu-3 (human, UniProt P04626 23-1255); assay: FACS on Her-2 over-expressing SKBR3 cells, anti-human Fc-PE detection
T2 construct: whole, on cells; also called SKBR3 cells; Calu-3 cells
Experimental: (§1) Antigen binding was also determined by SPR. Biacore CM5 chips were coated with different amounts of human soluble Her-2 followed by addition of increasing concentrations of Fcabs. The affinity (KD) of the Fcabs was calculated from the resulting binding curves after fitting using the software BiaEval. […] Antigen binding was also assessed by FACS using the Her-2 over-expressing human breast cancer cell lines SKBR3 and Calu-3. 1×10⁵ cells were incubated with increasing concentrations of Fcabs for 60 minutes on ice. Then, unbound antibodies were removed by centrifugation and washing. Cell bound Fcabs were detected by incubation with anti-human Fc specific antibodies conjugated to phycoerythrin (Sigma) for 60 minutes on ice. After washing the cells, the intensity of fluorescence on the cell surface was measured in a FACS Calibur instrument (Beckton Dickinson).

[3] = target: T2, Her-2 on Her-2 over-expressing human …; assay: cell-based or functional assay
[4] = target: T1, Human soluble Her-2 (Bender Med …); assay: SPR, Biacore CM5 chip coated with human soluble Her-2, Fcab as analyte, BiaEval fit
Experimental: as §1

[5] = target: T1, Human soluble Her-2 (Bender Med …); assay: assay not stated; told in the yeast display FACS selection and affinity maturation section (biotinylated Her2)
wild type Fcab = target: T3, wild type Fcab (human, UniProt P0DOX5 218-449 = IgG part, limits assumed); assay: SPR, Fcab (10 ug/ml) captured on Protein A chip (3000 RU), human soluble CD64 at 5 ug/ml as analyte
T3 construct: also called Fcab wt; wtFcab
Experimental: Association with the neonatal Fc receptor (FcRn) was measured by adding 10 μg/ml Fcab to a Biacore CM5 chip coupled to 5000 response units (RU) of recombinant human FcRn at pH=6.0. The dissociation of Fcab from FcRn was tested at pH=7.4. […] Finally, human soluble CD64 at 5 μg/ml was added.

[6] = target: T4, Fcab wt (non-randomized Fc fragment) expressed on yeast (human, UniProt P0DOX5 218-449 = IgG part); assay: FACS of yeast-displayed Fcab wt, CD64 staining
T4 construct: also called Fcab-wt expressing cells; not shown: N-terminal Aga2 display fusion (and CH1 in vector pYD1dXFc)

Row | Binder | EC50 [1] [nM] | EC50 [2] [nM] | further results
1 | y-Her.C2.P4.2-9 (designed binder) EPKSCDKTHTCPPCPAPELLGGPSVFLFPPKPKDTLMISRTPEVTCVVVDVSHEDPEVKFNWYVDGVEVHNAKTKPREEQYNSTYRVVSVLTVLHQDWLNGKEYKCKVSNKALPAPIEKTISKAKGQPREPQVYTLPPSRDEYLHGDVSLTCLVKGFYPSDIAVEWESNGQPENNYKTTPPVLDSDGSFFLYSKLTVARYSPRMLRWAHGNVFSCSVMHEALHNHYTQKSLSLSPGK | 4.3 | – | –
2 | ABEFs0101 (designed binder, If read literally (148-197) a Val would be doubled) EPKSCDKTHTCPPCPAPELLGGPSVFLFPPKPKDTLMISRTPEVTCVVVDVSHEDPEVKFNWYVDGVEVHNAKTKPREEQYNSTYRVVSVLTVLHQDWLNGKEYKCKVSNKALPAPIEKTISKAKGQPREPQVYTLPPSRDEYLSADVSLTCLVKGFYPSDIAVEWESNGQPENNYKTTPPVLDSDGSFFLYSKLTVARYSPSMWRWGHGNVFSCSVMHEALHNHYTQKSLSLSPGK | 16.1 | 5.2 | ADCC: SKBR3 cell killing by NK cells (7-AAD/CFSE double positive cells), EC50 [3]: 1 nM
3 | H10-03-6 (designed binder, also called H10-03-6 clone) EPKSCDKTHTCPPCPAPELLGGPSVFLFPPKPKDTLMISRTPEVTCVVVDVSHEDPEVKFNWYVDGVEVHNAKTKPREEQYNSTYRVVSVLTVLHQDWLNGKEYKCKVSNKALPAPIEKTISKAKGQPREPQVYTLPPSRDEYLYGDVSLTCLVKGFYPSDIAVEWESNGQPENNYKTTPPVLDSDGSFFLYSKLTVPRHSARMWRWAHGNVFSCSVMHEALHNHYTQKSLSLSPGK | 4.8 | 10.3 | Kd [4]: 8.6 nM; EC50 [5]: 18.9 nM; ADCC: SKBR3 cell killing by NK cells (7-AAD/CFSE double positive cells), EC50 [3]: 1.1 nM
4 | y-Her.C2.P4.2-3 (designed binder) EPKSCDKTHTCPPCPAPELLGGPSVFLFPPKPKDTLMISRTPEVTCVVVDVSHEDPEVKFNWYVDGVEVHNAKTKPREEQYNSTYRVVSVLTVLHQDWLNGKEYKCKVSNKALPAPIEKTISKAKGQPREPQVYTLPPSRDEYASNTVSLTCLVKGFYPSDIAVEWESNGQPENNYKTTPPVLDSDGSFFLYSKLTVARYSPRMLRWAHGNVFSCSVMHEALHNHYTQKSLSLSPGK | 463 | – | –
5 | y-Her.C2.P4.2-4 (designed binder) EPKSCDKTHTCPPCPAPELLGGPSVFLFPPKPKDTLMISRTPEVTCVVVDVSHEDPEVKFNWYVDGVEVHNAKTKPREEQYNSTYRVVSVLTVLHQDWLNGKEYKCKVSNKALPAPIEKTISKAKGQPREPQVYTLPPSRDEYSDGDVSLTCLVKGFYPSDIAVEWESNGQPENNYKTTPPVLDSDGSFFLYSKLTVARYSPRMLRWAHGNVFSCSVMHEALHNHYTQKSLSLSPGK | 370 | – | –
6 | y-Her.C2.P4.2-19 (designed binder) EPKSCDKTHTCPPCPAPELLGGPSVFLFPPKPKDTLMISRTPEVTCVVVDVSHEDPEVKFNWYVDGVEVHNAKTKPREEQYNSTYRVVSVLTVLHQDWLNGKEYKCKVSNKALPAPIEKTISKAKGQPREPQVYTLPPSRDEYRSGEVSLTCLVKGFYPSDIAVEWESNGQPENNYKTTPPVLDSDGSFFLYSKLTVARYSPRMLRWAHGNVFSCSVMHEALHNHYTQKSLSLSPGK | 93 | – | –
7 | EF3-17 (designed binder) EPKSCDKTHTCPPCPAPELLGGPSVFLFPPKPKDTLMISRTPEVTCVVVDVSHEDPEVKFNWYVDGVEVHNAKTKPREEQYNSTYRVVSVLTVLHQDWLNGKEYKCKVSNKALPAPIEKTISKAKGQPREPQVYTLPPSRDEYLHGDVSLTCLVKGFYPSDIAVEWESNGQPENNYKTTPPVLDSDGSFFLYSKLTVARHSRTMWRWGHGNVFSCSVMHEALHNHYTQKSLSLSPGK | 4.7 | 1.3 | –
8 | H561G3M1G4 (designed binder) EPKSCDKTHTCPPCPAPELLGGPSVFLFPPKPKDTLMISRTPEVTCVVVDVSHEDPEVKFNWYVDGVEVHNAKTKPREEQYNSTYRVVSVLTVLHQDWLNGKEYKCKVSNKALPAPIEKTISKAKGQPREPQVYTLPPSRDEFFTYWVSLTCLVKGFYPSDIAVEWESNGQPENNYKTTPPVLDSDGSFFLYSKLTVDRRRWTAGNVFSCSVMHEALHNHYTQKSLSLSPGK | 263 | – | Kd [4]: 7.5 nM
9 | human soluble CD64 (receptor, UniProt P12314 16-292, looked up, extracellular domain; Printed as 'human soluble CD64'; also called human CD64 (R&D Systems)) QVDTTKAVITLQPPWVSVFQEETVTLHCEVLHLPGSSSTQWFLNGTATQTSTPSYRITSASVNDSGEYRCQRGLSGRSDPIQLEIHRGWLLLQVSSRVFTEGEPLALRCHAWKDKLVYNVLYYRNGKAFKFFHWNSNLTILKTNISHNGTYHCSGMGKHRYTSAGISVTVKELFPAPVLNASVTSPLLEGNLVTLSCETKLLLQRPGLQLYFSFYMGSKTLRGRNTSSEYQILTARREDSGLYWCEAATEDGNVLKRSPELELQVLGLQLPTPVWFH | – | – | binding result (wild type Fcab): binds; binding result [6]: binds
